Among the data in paper PMC3216068 are Kd values, retold here.

The assay addresses SUMO1 (human) (UniProt P63165). As to the kind of experiment: SPR; preliminary BiaCore analyses, done by Affina Biotechnologies as a paid service. Background: In SPR one partner is held on a chip, and binding of the other changes the refractive index at the surface.

What is called Kd is a measure of binding affinity in units of concentration. Low readings indicate tighter binding, high ones weaker binding.

Sequence of UniProt P63165 (P63165 1-97): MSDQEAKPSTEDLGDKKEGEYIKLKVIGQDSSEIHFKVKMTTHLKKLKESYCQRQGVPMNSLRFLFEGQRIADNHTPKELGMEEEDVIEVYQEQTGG

“Ulp1(3)^(C580S) as used in the BiaCore analyses (from UniProt Q02724 341-621) (domain or fragment)” yielded a Kd of 0.0128 µM.
